Target: native human IL-23 receptor on the surface of cultured human cells (K-562, THP-1, Jurkat) and primary human T-cells (human) (UniProt Q5VWK5)
Test: cell-based or functional assay

native human IL-23 receptor on the surface of cultured human cells (K-562, THP-1, Jurkat) and primary human T-cells (human), sequence (Q5VWK5 24-629): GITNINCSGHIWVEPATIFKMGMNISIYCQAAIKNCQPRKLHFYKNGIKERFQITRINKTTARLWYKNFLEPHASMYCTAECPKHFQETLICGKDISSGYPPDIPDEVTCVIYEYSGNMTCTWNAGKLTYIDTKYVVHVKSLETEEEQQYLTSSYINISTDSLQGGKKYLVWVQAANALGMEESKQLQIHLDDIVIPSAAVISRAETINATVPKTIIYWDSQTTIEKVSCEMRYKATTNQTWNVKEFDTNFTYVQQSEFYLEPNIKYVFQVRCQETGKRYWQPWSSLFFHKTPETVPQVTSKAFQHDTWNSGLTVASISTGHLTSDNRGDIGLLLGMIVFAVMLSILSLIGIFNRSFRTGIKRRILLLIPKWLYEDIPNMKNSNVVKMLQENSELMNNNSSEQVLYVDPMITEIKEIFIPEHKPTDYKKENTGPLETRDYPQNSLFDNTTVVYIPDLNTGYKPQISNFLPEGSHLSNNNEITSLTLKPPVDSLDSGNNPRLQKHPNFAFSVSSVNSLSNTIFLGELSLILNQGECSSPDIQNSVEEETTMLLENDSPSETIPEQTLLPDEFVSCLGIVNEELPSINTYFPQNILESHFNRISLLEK

Th-17+ cell expansion (IL-17-producing cells) in PBMC suspensions after 3 days, normalized to IL-23 only = 1 (normalized cell count (IL-23 only = 1)): 0.88
Th-17+ cell expansion in separated T-cell samples after 3 days, normalized to IL-23 only = 1 (normalized cell count (IL-23 only = 1)): 0.99
Substance: His6-ABDwt-TolA-AVI (from UniProt P19934 131-421)
